Experiments:
[1] = XenA-GDH coupled cycling biotransformation of ketoisophorone to levodione; type: biochemical
Experimental: (§1) Coupled enzymatic biotransformation. All biotransformation reactions were performed in buffer A at 30° C. for 24 hours. Reaction buffer A, modified from that disclosed in Chaparro-Riggers et al., Advanced Synthesis & Catalysis 349(8-9):1521-1531 (2007)), contained 200 mM potassium phosphate buffer (pH 7.5), 1 M NaCl, 300 mM D-glucose, 6 mM NMN^+ (or NADP^+ as the positive control), and substrates. All assays were performed in triplicate, with no proteins or no cofactors added as negative controls. The protein loading for GDH variants was kept at 0.33 mg mL^−1 or 11.7 μM. The various enzymes for biotransformation reactions were added at the concentration of 0.75 mg mL^−1.
For XenA-GDH coupled cycling assays, the substrates ketoisophorone, citral, or trans-2-hexen-1-al were added at 33 mM, 10 mM, or 50 mM, respectively. For the OYE3-GDH coupled cycling assays, the substrate 4-phenyl-3-butyn-2-one was added at 5 mM. At various time points over 24 hours, 100 μL samples were taken and extracted with 100 μL ethyl acetate. Conversion was determined via GC-FID with octanol as an internal standard (see below). For NfsB-GDH coupled cycling assays, 2 mM nitrofurazone was used as the substrate. Nitrofurazone conversion was measured spectroscopically at 400 nm and quantification was performed using a standard curve. The initial levels of the above-mentioned substrates were mainly determined by their solubility in the assay buffer. For BM3-GDH coupled cycling assays, 50 μM cytochrome c (C2506 Sigma) was used as the substrate. The reduction of cytochrome c was measured spectroscopically at 550 nm. and the quantification was performed using extinction coefficient ε550 of 21.1 mM^−1 cm^−1.
Coupled cycling conditions: All biotransformation reactions were performed in buffer A at 30° C. for 24 hours. Reaction buffer A contained 200 mM potassium phosphate buffer (pH 7.5), 1 M NaCl, 300 mM D-glucose, 6 mM NMN^+. Substrate ketoisophorone was added at 5 g/L. At various time points over 24 hours, 100 μL samples were taken and extracted with 100 μL ethyl acetate. Conversion was determined via GC-FID with octanol as an internal standard (see below).

[2] = GDH enzymatic assay with NADP^+ as cofactor; type: biochemical; conditions: for decrease of catalytic efficiency on NADP^+: versus wild type
Experimental: (§2) GDH enzymatic assays. The GDH activity was measured as described in Hilt et al. (Biochimica et biophysica acta 1076(2):298-304 (1991)). The reactions were started by adding the purified protein to the assay mixture containing 35 mM Tris-HCl buffer (pH 8.0), 3 mM NAD^+, NADP^+ or NMN^+ and 140 mM glucose. The absorbance variation at 340 nm was detected by a spectrophotometer at 25° C.

[3] = OYE3-GDH coupled cycling assay; type: biochemical; conditions: OYE3, NMN^+
Experimental: as §1
(§3) For XenA-GDH coupled cycling assays, the substrates ketoisophorone, citral, or trans-2-hexen-1-al were added at 33 mM, 10 mM, or 50 mM, respectively. […] Conversion was determined via GC-FID with octanol as an internal standard (see below). […] Nitrofurazone conversion was measured spectroscopically at 400 nm and quantification was performed using a standard curve. The initial levels of the above-mentioned substrates were mainly determined by their solubility in the assay buffer. […] The reduction of cytochrome c was measured spectroscopically at 550 nm. and the quantification was performed using extinction coefficient ε550 of 21.1 mM^−1 cm^−1.

[4] = NfsB-GDH coupled cycling assay; type: biochemical; conditions: NMN^+
Experimental: as §1, §3

[5] = XenA-GDH coupled cycling assay, citral; type: biochemical; conditions: 10 mM citral, 24 hours, NMN^+
Experimental: as §1, §3

[6] = GDH enzymatic assay with NMN^+ as cofactor; type: biochemical; conditions: for overall specificity switch towards NMN^+ from NADP^+ / overall specificity switch towards NMN^+ from NAD^+: compared to wild type
Experimental: as §2

cytochrome c = experiment: BM3-GDH coupled cycling assay; type: biochemical; conditions: BM3 W1046S, NMNH generated in situ
Experimental: as §1, §3

[7] = GDH enzymatic assay with NAD^+ as cofactor; type: biochemical; conditions: for decrease of catalytic efficiency on NAD^+: versus wild type
Experimental: as §2

[8] = XenA-GDH coupled cycling assay, trans-2-hexen-1-al; type: biochemical; conditions: 50 mM, 24 hours, NMN^+
Experimental: as §1, §3

[9] = Protein expression levels of GDH variants; design: species or system Escherichia coli; conditions: expressed in E. coli
Experimental: Proteins were purified as 6×His tag fusion at the N-terminus. E. coli BL21 (DE3) with plasmids were inoculated into LB medium with 200 mg L^−1 ampicillin. Cells were induced with 0.5 mM IPTG and expressed for 24 hours at 30° C. with shaking at 250 rpm. BM3 cytochrome P450 was extracted with the EMD Millipore™ BugBuste Plus Lysonase Kit and purified using the HisPur™ Ni-NTA Superflow Purification System according to the manufacturer's instructions. Other proteins were purified using His-Spin Protein Miniprep kit (Zymo Research Corporation, CA). The purified proteins were quantified by Bradford assay.

[10] = GDH total turnover number (TTN) determination; type: biochemical; conditions: NMN^+, GDH 0.47 μM, 33 mM ketoisophorone, 96 hours
Experimental: GDH Total Turnover Number (TTN) Determination. Total turnover number (TTN) was determined by the number of moles of product formed divided by the moles of purified GDH added. The assays were performed in reaction buffer A, as shown above, at 30° C. Ketoisophorone (33 mM) was used as the substrate. The reaction was started by spiking purified proteins (0.0132 mg mL^−1 or 0.47 μM for GDH, 0.75 mg mL^−1 for XenA). Samples were taken every 12 hours for 96 hours. The extraction and GC-FID analysis were performed using a similar method as mentioned above.

B1: I195R-A93K-Y39Q: Bs GDH with I195R, A93K, Y39Q substitutions (SEQ ID NO:6) (protein)
chain: MYPDLKGKVVAITGAASGLGKAMAIRFGKEQAKVVINYQSNKQDPNEVKEEVIKAGGEAVVVQGDVTKEEDVKNIVQTAIKEFGTLDIMINNKGLENPVPSHEMPLKDWDKVIGTNLTGAFLGSREAIKYFVENDIKGNVINMSSVHEVIPWPLFVHYAASKGGIKLMTETLALEYAPKGIRVNNIGPGAINTPRNAEKFADPKQKADVESMIPMGYIGEPEEIAAVAAWLASKEASYVTGITLFADGGMTQYPSFQAGRG
modifications: I195R A93K Y39Q mutant GDH coding sequence
Which “initial productivity of levodione” value ([1]; NMN^+ as cycling cofactor, XenA in excess, GDH 11.7 μM) does the source give for B1 here?
Its value is ~1.15 µM/s.

And the initial turnover frequency ([1]; NMN^+, Bs GDH loading 11.7 μM)?
The initial turnover frequency was ~0.10 s⁻¹.

What about the “improvement of NMN^+-dependent productivity” value ([1]; versus wild type Bs GDH) of the same molecule?
Its value is 22 fold.

What about the Kcat ([2]; cofactor NADP^+) of the same molecule?
Its Kcat is 4.4 ± 0.034 s⁻¹.

And the Km ([2]; cofactor NADP^+)?
The Km was 0.61 ± 0.15 mM.

And the “decrease of catalytic efficiency on NADP^+” value [2]?
The value was 1,600 fold.

What about the “decrease of catalytic efficiency on NADP^+” value ([2]; listed as GDH Triple) of the same molecule?
Its value is 38 fold.

And the “conversion of 4-phenyl-3-butyne-2-one” value [3]?
The value was > 99%.

What about the conversion of nitrofurazone [4] of the same molecule?
Its conversion of nitrofurazone is ~92%.

What about the conversion of citral [5] of the same molecule?
The conversion of citral was ~76%.

And the “increase in catalytic efficiency over the wild-type enzyme towards NMN^+” value [6]?
Its value is 1,000 fold.

What about the “improvement in catalytic efficiency over I195R” value ([6]; NMN^+) of the same molecule?
Its value is 4 fold.

What about the Kcat ([6]; cofactor NMN^+) of the same molecule?
The Kcat was 3.1 ± 0.037 s⁻¹.

What about the Km ([6]; cofactor NMN^+) of the same molecule?
The Km was 6.1 ± 0.83 mM.

What about the “overall specificity switch towards NMN^+ from NADP^+” value [6] of the same molecule?
Its value is 1,600,000 fold.

What about the “overall specificity switch towards NMN^+ from NAD^+” value [6] of the same molecule?
Its value is 38,000 fold.

And the “overall specificity switch towards NMN^+ from NADP^+” value ([6]; listed as GDH Triple)?
The value was 38,000 fold.

And the “overall specificity switch towards NMN^+ from NAD^+” value ([6]; listed as GDH Triple)?
Its value is 1,600,000 fold.

What about the “conversion (reduction) of cytochrome c” value (cytochrome c) of the same molecule?
Its value is > 99%.

What about the Kcat ([7]; cofactor NAD^+) of the same molecule?
Its Kcat is 0.41 ± 0.026 s⁻¹.

And the Km ([7]; cofactor NAD^+)?
The Km was 3.7 ± 0.93 mM.

What about the “decrease of catalytic efficiency on NAD^+” value [7] of the same molecule?
The value was 38 fold.

What about the “decrease of catalytic efficiency on NAD^+” value ([7]; listed as GDH Triple) of the same molecule?
Its value is 1,600 fold.

And the “conversion of trans-2-hexen-1-al” value [8]?
Its value is ~49%.

And the Expression level [9]?
The Expression level was 25.37 μg protein/ml culture.

What about the “total turnover number (TTN)” value [10] of the same molecule?
Its value is 39,000.
